Laboratory results published in PMC7497641, “Neurotropic activity and safety of methylene-cycloalkylacetate (MCA) derivative 3-(3-allyl-2-methylenecyclohexyl) propanoic acid” (ACS Chemical Neuroscience, 2020).

Tests used:
[1] = biological target: T1, Nicotinic acetylcholine Receptor alpha-4 beta-2 (nAChR(a4/b2)) (Homo sapiens, UniProt P17787+P43681); assay: cell-based; settings: Blocker; Ion channel; read-out: RC50 (the source's name)
T1 construct: host or cells: unnamed DiscoverX cell line

[2] = biological target: Gamma-aminobutyric acid Receptor A (GABAA) (Homo sapiens, UniProt P14867+P18507+P47870); assay: SAFETYscan Ion channel assay; type: cell-based; settings: Blocker, read-out: RC50 (the source's name)
Sequence of Gamma-aminobutyric acid Receptor A (GABAA) (P14867 28-456): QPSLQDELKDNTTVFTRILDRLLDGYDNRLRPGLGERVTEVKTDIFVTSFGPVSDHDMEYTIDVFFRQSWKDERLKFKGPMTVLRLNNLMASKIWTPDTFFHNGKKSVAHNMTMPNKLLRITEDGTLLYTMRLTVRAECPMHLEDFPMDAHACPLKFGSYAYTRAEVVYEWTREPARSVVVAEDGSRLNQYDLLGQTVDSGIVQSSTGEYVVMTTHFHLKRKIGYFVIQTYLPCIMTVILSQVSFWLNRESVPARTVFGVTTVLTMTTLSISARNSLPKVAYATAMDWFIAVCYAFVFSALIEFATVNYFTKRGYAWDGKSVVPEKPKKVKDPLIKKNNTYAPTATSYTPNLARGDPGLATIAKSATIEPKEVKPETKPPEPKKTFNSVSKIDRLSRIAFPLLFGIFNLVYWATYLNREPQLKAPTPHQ
Sequence of Gamma-aminobutyric acid Receptor A (GABAA) (P47870 26-512): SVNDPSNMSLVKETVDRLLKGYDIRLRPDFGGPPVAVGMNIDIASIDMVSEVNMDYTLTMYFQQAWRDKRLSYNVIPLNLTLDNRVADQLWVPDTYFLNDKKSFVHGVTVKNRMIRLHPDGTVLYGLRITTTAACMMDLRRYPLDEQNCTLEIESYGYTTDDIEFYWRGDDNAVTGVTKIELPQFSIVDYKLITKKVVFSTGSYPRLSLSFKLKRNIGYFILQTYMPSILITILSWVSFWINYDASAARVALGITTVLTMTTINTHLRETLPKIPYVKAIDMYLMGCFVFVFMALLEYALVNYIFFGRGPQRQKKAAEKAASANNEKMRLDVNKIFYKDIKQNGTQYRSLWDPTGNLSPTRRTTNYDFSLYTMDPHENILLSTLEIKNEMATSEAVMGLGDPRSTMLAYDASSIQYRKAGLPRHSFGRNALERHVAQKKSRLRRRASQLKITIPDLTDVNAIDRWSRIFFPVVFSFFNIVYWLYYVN
Sequence of Gamma-aminobutyric acid Receptor A (GABAA) (P18507 40-475): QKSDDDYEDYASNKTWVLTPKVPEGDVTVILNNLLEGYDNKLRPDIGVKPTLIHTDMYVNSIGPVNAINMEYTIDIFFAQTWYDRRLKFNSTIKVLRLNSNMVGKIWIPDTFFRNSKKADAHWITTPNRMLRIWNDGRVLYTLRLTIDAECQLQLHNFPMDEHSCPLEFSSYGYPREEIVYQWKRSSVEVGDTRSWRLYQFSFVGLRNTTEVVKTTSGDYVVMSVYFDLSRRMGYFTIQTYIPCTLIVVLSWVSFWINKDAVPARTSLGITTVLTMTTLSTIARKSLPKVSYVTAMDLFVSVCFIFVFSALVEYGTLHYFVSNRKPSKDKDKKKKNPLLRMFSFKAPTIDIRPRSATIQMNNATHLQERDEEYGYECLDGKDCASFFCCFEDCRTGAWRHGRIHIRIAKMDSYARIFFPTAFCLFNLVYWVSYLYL

[3] = test system: PC12 dopaminergic cell cultures; assay: PC12 neurotropic (neurite outgrowth) assay; type: cell-based, rat; settings: for neurite outgrowth, Df value: NGF alone 50 ng/mL
[4] = test system: dorsal root ganglion (DRG) sensory neurons; assay: DRG neurite outgrowth assay; type: cell-based, mice; settings: NGF 50 ng/mL, DRG explants, 5 days
Description: In the second step, we study the effect of HU-MCA-13 on ex-vivo sensory neuronal cultures obtained from dissociated dorsal root ganglia (DRG), a model in which the neurons tend to extend neurites in culture at a high rate, and all neurite outgrowths are axons, as confirmed by immune staining for cytoskeletal-specific proteins.[27] […] By contrast, NGF induced a strong, 3.5-fold increase in neurite outgrowth to a value of 700 μm (Figure 1 and Figure 3B) and a ratio of 8.5 between the area covered by neurites and that covered by the DRG ganglia (Figure 3C). Similarly, HU-MCA-13 induced a 2.5 fold increase in neurite outgrowth to a value of about 500 μm (Figure 1 and Figure 3B) and a ratio of 5.4 between the area covered by neurites and that covered by the DRG ganglia (Figure 3C). […] These experiments extend the neurotropic effect of MCA-13 observed with PC12 dopaminergic neuronal cultures to DRG sensory neurons.
To perform these experiments, 10 DRGs were excised under sterile conditions and transferred to Dulbecco’s Modified Eagle Medium (DMEM) containing 0.25% Type IV collagenase in at 37 °C for 45 min, followed by a 20 min incubation with 0.025% trypsin in DMEM, to digest the associated connective tissue surrounding the neurons. After plating the ganglia onto collagen (50 μg/mL)/laminin mixture (5 μg/mL)-coated tissue culture wells for 24 h, DRG neurons were cultured for additional 1–7 days in fresh Neurobasal A/B27 medium[27] containing either 50 ng/mL NGF (positive control), medium containing 1% DMSO (negative control) or 5 μM MCA-13. The living cultures were photographed and thereafter, the ganglia were immunostained for β tubulin III and again photographed using a fluorescent microscope. A researcher blinded to the experimental conditions performed image analysis, and the neurite outgrowth length (in micrometers) was measured.[50]

[5] = test system: adult rat spinal cord primary cultures; assay: Spinal cord neurons neurite outgrowth assay; type: cell-based; settings: NGF 50 ng/mL
Procedure: To study the effect of HU-MCA-13 on adult rat spinal cord primary cultures in vitro, we developed a purification procedure that yields enriched different types of spinal cord neuronal cultures. This neurotropic assay was performed using vehicle 1% DMSO in DMEM as control and 10 μM HU-MCA-13. The results in Figure 1 bottom row and Figure 3D clearly indicate that in control there was very poor spontaneous neurite outgrowth of a total length of about 180 μm and NGF induced neurite outgrowth to a total length of about 800 μm. Similarly, HU-MCA-13 induced a neurite outgrowth of 600 μm. Figure 2B indicates cytoskeletal-tubulin protein expression in the cultured neurons. These findings further extend the neurotropic effect of HU-MCA-13 to spinal cord neurons, in addition to DRGs and PC12 cells.
Spinal cords were isolated from adult rats (4–6 months old), and the meninges were removed from the spinal cord. The spinal cord was then cut into small pieces and collected in cold Hibernate A (Brainbits, Springfield, IL, USA), glutamine (0.5 mM), and B27 (Invitrogen, Carlsbad, CA). […] Neurite outgrowth was measured and presented as mean length of a neurite (microns). To measure neuronal survival, 450 cells were counted in 10 randomly chosen microscope fields of a known area in each of the three dishes per condition using a 20× objective and phase-contrast optics. […]

[6] = test system: PGE2 production in PC12 cells; assay: PGE2 production measured by ELISA; settings: 50 ng/mL NGF; 24 h

T1 sequence (P43681 29-627 limits assumed): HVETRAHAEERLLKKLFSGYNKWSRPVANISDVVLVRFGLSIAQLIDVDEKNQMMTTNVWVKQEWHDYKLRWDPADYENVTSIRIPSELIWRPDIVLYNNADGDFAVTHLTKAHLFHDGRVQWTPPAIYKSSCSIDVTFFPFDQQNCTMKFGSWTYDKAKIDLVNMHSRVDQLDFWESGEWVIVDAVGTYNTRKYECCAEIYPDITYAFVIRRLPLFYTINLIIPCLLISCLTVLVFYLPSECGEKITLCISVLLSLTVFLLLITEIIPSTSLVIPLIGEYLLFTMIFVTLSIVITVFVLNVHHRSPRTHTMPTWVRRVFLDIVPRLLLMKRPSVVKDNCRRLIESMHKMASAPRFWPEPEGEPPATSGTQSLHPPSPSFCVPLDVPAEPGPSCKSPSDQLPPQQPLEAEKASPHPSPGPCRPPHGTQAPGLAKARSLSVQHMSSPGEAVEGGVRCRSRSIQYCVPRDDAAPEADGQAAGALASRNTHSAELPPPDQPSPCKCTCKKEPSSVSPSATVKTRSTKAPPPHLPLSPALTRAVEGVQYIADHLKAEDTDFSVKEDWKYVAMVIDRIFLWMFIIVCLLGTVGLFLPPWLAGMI
T1 sequence (P17787 26-502): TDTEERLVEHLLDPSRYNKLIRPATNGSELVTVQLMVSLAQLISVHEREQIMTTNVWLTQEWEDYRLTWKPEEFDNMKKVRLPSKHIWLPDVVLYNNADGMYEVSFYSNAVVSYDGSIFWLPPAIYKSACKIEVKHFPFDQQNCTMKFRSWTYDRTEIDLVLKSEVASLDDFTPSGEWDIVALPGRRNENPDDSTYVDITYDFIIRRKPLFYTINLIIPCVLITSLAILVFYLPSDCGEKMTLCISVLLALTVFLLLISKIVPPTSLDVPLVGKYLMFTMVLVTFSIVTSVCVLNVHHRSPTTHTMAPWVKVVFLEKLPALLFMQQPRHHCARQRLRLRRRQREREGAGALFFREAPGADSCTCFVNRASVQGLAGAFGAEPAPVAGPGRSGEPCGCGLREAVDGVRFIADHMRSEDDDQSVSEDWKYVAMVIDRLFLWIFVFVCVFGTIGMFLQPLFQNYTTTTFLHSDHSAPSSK

Dihydro-AY-erythroidine [reference compound]
IC50 [1]: 0.707 µM

Picrotoxin
IC50 [2]: 5.92 µM

B1: NGF: Tissue culture grade mouse β-nerve growth factor, neurotrophin used as positive control (protein, UniProt P01139 122-241, looked up)
Beta-nerve growth factor: SSTHPVFHMGEFSVCDSVSVWVGDKTTATDIKGKEVTVLAEVNINNSVFRQYFFETKCRASNPVESGCRGIDSKHWNSYCTTTHTFVKALTTDEKQAAWRFIRIDTACVCVLSRKATRRG
modifications: Beta-nerve growth factor
notes: Tissue culture grade mouse β-nerve growth factor, neurotrophin used as positive control
neurotropic effect in the presence of Trk A inhibitor K252a ([3]; 250 nM K252a, 10 μM HU-MCA-13): abolished
neurite outgrowth, Df value ([3]; 2 days): 0.54
neurite outgrowth, Df value ([3]; 7 days): 0.4
neurite outgrowth ([3]; low dose of NGF 1 ng/mL): 10%
neurite outgrowth, Df ([3]; low dose of NGF 1 ng/mL): 0.05
neurite outgrowth length [4]: 700 μm
ratio between the area covered by neurites and that covered by the DRG ganglia [4]: 8.5
fold increase in neurite outgrowth ([4]; versus control medium): 3.5 fold
neurite outgrowth total length [5]: about 800 μm
production of PGE2 [6]: significantly increased
